For experiment [1], the target named is RAB7B peptide … presented by HLA-A*11:01 (human). The experiment can be described thus: cell-based or functional assay.
For experiment [2], the target named is KRAS G12V 7-16 10mer peptide … presented by HLA-A*11:01 (human). The experiment in a line: cell-based or functional assay.
Experiment [3] has as its target KRAS G12V 8-16 9mer peptide … presented by HLA-A*11:01 (human). The experiment can be described thus: cell-based or functional assay.
The target in experiment [4] is T1, KRAS G12V (same sequence in NRAS G12V and HRAS G12V) peptide on HLA-A*11:01 (human).
T1 peptide: VVGAVGVGK
The experiment can be described thus: stated without data.

A value given as a limit tells only on which side of the number the result lay.

B1: TCR 11N4A (TCR, V domains shown)
V domain 1: DQQVKQNSPSLSVQEGRISILNCDYTNSMFDYFLWYKKYPAEGPTFLISISSIKDKNEDGRFTVFLNKSAKHLSLHIVPSQPGDSAVYFCAASGVSGNTPLVFGKGTRLSVIA
V domain 2: GVTQTPRYLIKTRGQQVTLSCSPISGHRSVSWYQQTPGQGLQFLFEYFSETQRNKGNFPGRFSGRQFSNSRSEMNVSTLELGDSALYLCASSVGTVEQYFGPGTRLTVTE
For the molecule B1, the “EC50, CD137 expression, sort-purified TCR 11N4A-transduced T cells, peptide titration” value in experiment [1] was ~35 µg/mL.

B2: TCR 11N4A (TCR)
TCR alpha: QQKNDDQQVKQNSPSLSVQEGRISILNCDYTNSMFDYFLWYKKYPAEGPTFLISISSIKDKNEDGRFTVFLNKSAKHLSLHIVPSQPGDSAVYFCAASGVSGNTPLVFGKGTRLSVIANIQNPDPAVYQLRDSKSSDKSVCLFTDFDSQTNVSQSKDSDVYITDKCVLDMRSMDFKSNSAVAWSNKSDFACANAFNNSIIPEDTFFPSPESSCDVKLVEKSFETDTNLNFQNLSVIGFRILLLKVAGFNLLMTLRLWSS
TCR beta: GVTQTPRYLIKTRGQQVTLSCSPISGHRSVSWYQQTPGQGLQFLFEYFSETQRNKGNFPGRFSGRQFSNSRSEMNVSTLELGDSALYLCASSVGTVEQYFGPGTRLTVTEDLKNVFPPEVAVFEPSEAEISHTQKATLVCLATGFYPDHVELSWWVNGKEVHSGVCTDPQPLKEQPALNDSRYCLSSRLRVSATFWQNPRNHFRCQVQFYGLSENDEWTQDRAKPVTQIVSAEAWGRADCGFTSESYQQGVLSATILYEILLGKATLYAVLVSALVLMAMVKRKDSRG
Take B2: in experiment [2], the EC50, CD137 surface expression assay (functional avidity), TCR 11N4A in primary human CD8+ T cells amounted to 18.8 nM. Also, in experiment [3], the EC50, CD137 surface expression assay (functional avidity), TCR 11N4A in primary human CD8+ T cells was 0.0595 nM and the percent of T cells responding (CD137), peptide titration was > 80%.

B3: TCR 11N6 (TCR, V domains shown)
Valpha: QQGEEDPQALSIQEGENATMNCSYKTSINNLQWYRQNSGRGLVHLILIRSNEREKHSGRLRVTLDTSKKSSSLLITASRAADTASYFCATDPMNTNAGKSTFGDGTTLTVKP
Vbeta: GVAQSPRYKIIEKRQSVAFWCNPISGHATLYWYQQILGQGPKLLIQFQNNGVVDDSQLPKDRFSAERLKGVDSTLKIQPAKLEDSAVYLCASSPYGGSVSYEQYFGPGTRLTVT
B3: in experiment [4], the binding result was “recognises”.

These data come from patent publication US20250177531A1 (FRED HUTCHINSON CANCER CENTER, published 2025).
